T1: Bcl-w, Q92843
T1 chain: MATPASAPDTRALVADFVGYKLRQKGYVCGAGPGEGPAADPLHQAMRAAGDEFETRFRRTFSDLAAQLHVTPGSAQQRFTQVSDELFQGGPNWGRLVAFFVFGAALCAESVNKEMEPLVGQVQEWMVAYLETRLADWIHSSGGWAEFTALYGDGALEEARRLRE

T2: Bfl-1, Q16548
T2 chain: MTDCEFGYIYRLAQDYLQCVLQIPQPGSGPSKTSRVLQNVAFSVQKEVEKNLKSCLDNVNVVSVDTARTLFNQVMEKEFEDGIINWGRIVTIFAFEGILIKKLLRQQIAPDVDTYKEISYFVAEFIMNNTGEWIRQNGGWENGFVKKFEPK

T3: Mcl-1, Q07820
T3 chain: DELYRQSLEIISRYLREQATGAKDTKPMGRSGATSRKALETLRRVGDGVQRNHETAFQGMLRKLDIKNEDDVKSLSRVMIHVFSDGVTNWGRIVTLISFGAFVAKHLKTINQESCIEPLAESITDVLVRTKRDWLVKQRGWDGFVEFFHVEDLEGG

T4: Bcl-2, P10415
T4 chain: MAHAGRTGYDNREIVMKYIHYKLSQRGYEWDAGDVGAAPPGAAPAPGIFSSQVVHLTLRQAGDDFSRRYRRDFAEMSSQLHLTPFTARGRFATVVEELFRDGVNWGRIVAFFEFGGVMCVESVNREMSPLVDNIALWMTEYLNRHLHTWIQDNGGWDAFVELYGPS


molecular target: Bcl-2, P10415; assay: peptide SPOT array, c-Myc-tagged receptor at 1 uM or 100 nM, anti-c-Myc-Cy3
Target sequence in this assay (P10415 1-217): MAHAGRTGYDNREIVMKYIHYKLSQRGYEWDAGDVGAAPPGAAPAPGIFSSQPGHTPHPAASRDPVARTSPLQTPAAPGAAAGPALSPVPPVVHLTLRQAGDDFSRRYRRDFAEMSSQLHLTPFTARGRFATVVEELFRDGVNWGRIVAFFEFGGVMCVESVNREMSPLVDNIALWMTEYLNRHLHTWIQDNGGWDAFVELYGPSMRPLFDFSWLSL

| SPOT signal as a fraction of Bim BH3's signal on the same receptor and array | Binder |
| --- | --- |
| 0.01 | TRELQELARKLQELADASENLLTENT [TXNDC11] |
| 0.25 | ATKRETAATFLKKVAKEFGFQNNGFS [NPLOC4] |

Molecular target: T1, Bcl-w, Q92843
Assay: as above

| SPOT signal as a fraction of Bim BH3's signal on the same receptor and array | Binder |
| --- | --- |
| 0.27 | TRELQELARKLQELADASENLLTENT [TXNDC11] |
| 0.77 | ATKRETAATFLKKVAKEFGFQNNGFS [NPLOC4] |

molecular target: Bcl-xL, Q07817; assay: as above
Sequence (Q07817 1-209): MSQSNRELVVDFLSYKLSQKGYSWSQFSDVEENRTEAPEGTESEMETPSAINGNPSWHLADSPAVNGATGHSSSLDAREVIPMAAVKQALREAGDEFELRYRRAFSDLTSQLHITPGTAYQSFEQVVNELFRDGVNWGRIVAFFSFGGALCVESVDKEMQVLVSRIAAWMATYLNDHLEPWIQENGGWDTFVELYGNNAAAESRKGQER

| SPOT signal as a fraction of Bim BH3's signal on the same receptor and array | Binder |
| --- | --- |
| 1.26 | VDSIRPKCQELRHLCDQFSAEIARRR [MCF2L] |
| 0.91 | TVATRRLSGFLRTLADRLEGTKELLS [MINA] |
| 0.62 | LCQLSCVSKLMRDVCGSLLQSRGMVI [FBXO30] |
| 0.12 | QRKHEGFERDLAALGDKVNSLGETAE [SPTAN1] |
| 0.14 | FSKREKLVEILRNIGDERTMVFVETK [DDX4] |
| 1.91 | TRRSMVFARHLREVGDEFRSRHLNST [POFUT2] |
| 2.13 | RVCPYYLSRNLKQQADIIFMPYNYLL [RTEL1] |
| 0.04 | TRELQELARKLQELADASENLLTENT [TXNDC11] |
| 0.73 | ATKRETAATFLKKVAKEFGFQNNGFS [NPLOC4] |

Molecular target: T2, Bfl-1, Q16548
Assay: as above

| SPOT signal as a fraction of Bim BH3's signal on the same receptor and array | Binder |
| --- | --- |
| 0.21 | VDSIRPKCQELRHLCDQFSAEIARRR [MCF2L] |
| 0.32 | TVATRRLSGFLRTLADRLEGTKELLS [MINA] |
| 0.31 | LCQLSCVSKLMRDVCGSLLQSRGMVI [FBXO30] |
| 0.13 | QRKHEGFERDLAALGDKVNSLGETAE [SPTAN1] |
| 0.1 | FSKREKLVEILRNIGDERTMVFVETK [DDX4] |
| 0.75 | TRRSMVFARHLREVGDEFRSRHLNST [POFUT2] |
| 0.72 | RVCPYYLSRNLKQQADIIFMPYNYLL [RTEL1] |
| 0.01 | TRELQELARKLQELADASENLLTENT [TXNDC11] |
| 0.41 | ATKRETAATFLKKVAKEFGFQNNGFS [NPLOC4] |

Molecular target: T3, Mcl-1, Q07820
Assay: as above

| SPOT signal as a fraction of Bim BH3's signal on the same receptor and array | Binder |
| --- | --- |
| 0.24 | VDSIRPKCQELRHLCDQFSAEIARRR [MCF2L] |
| 0.36 | TVATRRLSGFLRTLADRLEGTKELLS [MINA] |
| 0.28 | LCQLSCVSKLMRDVCGSLLQSRGMVI [FBXO30] |
| 0.27 | QRKHEGFERDLAALGDKVNSLGETAE [SPTAN1] |
| 0.35 | FSKREKLVEILRNIGDERTMVFVETK [DDX4] |
| 1.67 | TRRSMVFARHLREVGDEFRSRHLNST [POFUT2] |
| 1.42 | RVCPYYLSRNLKQQADIIFMPYNYLL [RTEL1] |
| 0.01 | TRELQELARKLQELADASENLLTENT [TXNDC11] |
| 0.23 | ATKRETAATFLKKVAKEFGFQNNGFS [NPLOC4] |

Molecular target: T4, Bcl-2, P10415
Assay: fluorescence polarisation, direct titration of receptor into 10 nM labelled peptide

| Kd | Binder |
| --- | --- |
| 6 nM | VDSIRPKCQELRHLCDQFSAEIARRR [MCF2L] |
| 266 nM | TVATRRLSGFLRTLADRLEGTKELLS [MINA] |
| 2560 nM | LCQLSCVSKLMRDVCGSLLQSRGMVI [FBXO30] |
| > 3040 nM | QRKHEGFERDLAALGDKVNSLGETAE [SPTAN1] |
| > 3040 nM | FSKREKLVEILRNIGDERTMVFVETK [DDX4] |
| 98 nM | TRRSMVFARHLREVGDEFRSRHLNST [POFUT2] |
| 342 nM | RVCPYYLSRNLKQQADIIFMPYNYLL [RTEL1] |
| 86 nM | TRELQELARKLQELADASENLLTENT [TXNDC11] |
| 2060 nM | ATKRETAATFLKKVAKEFGFQNNGFS [NPLOC4] |

Molecular target: T1, Bcl-w, Q92843
Assay: as above

| Kd | Binder |
| --- | --- |
| 7 nM | VDSIRPKCQELRHLCDQFSAEIARRR [MCF2L] |
| 1230 nM | TVATRRLSGFLRTLADRLEGTKELLS [MINA] |
| 3280 nM | LCQLSCVSKLMRDVCGSLLQSRGMVI [FBXO30] |
| > 4350 nM | QRKHEGFERDLAALGDKVNSLGETAE [SPTAN1] |
| > 4350 nM | FSKREKLVEILRNIGDERTMVFVETK [DDX4] |
| 98 nM | TRRSMVFARHLREVGDEFRSRHLNST [POFUT2] |
| > 100000 nM | RVCPYYLSRNLKQQADIIFMPYNYLL [RTEL1] |
| 249 nM | TRELQELARKLQELADASENLLTENT [TXNDC11] |
| > 4500 nM | ATKRETAATFLKKVAKEFGFQNNGFS [NPLOC4] |

molecular target: Bcl-xL, Q07817; assay: as above

| Kd | Binder |
| --- | --- |
| 4 nM | VDSIRPKCQELRHLCDQFSAEIARRR [MCF2L] |
| 1010 nM | TVATRRLSGFLRTLADRLEGTKELLS [MINA] |
| > 10000 nM | LCQLSCVSKLMRDVCGSLLQSRGMVI [FBXO30] |
| > 7000 nM | QRKHEGFERDLAALGDKVNSLGETAE [SPTAN1] |
| > 4000 nM | FSKREKLVEILRNIGDERTMVFVETK [DDX4] |
| 39 nM | TRRSMVFARHLREVGDEFRSRHLNST [POFUT2] |
| 1380 nM | RVCPYYLSRNLKQQADIIFMPYNYLL [RTEL1] |
| 1490 nM | TRELQELARKLQELADASENLLTENT [TXNDC11] |
| > 100000 nM | ATKRETAATFLKKVAKEFGFQNNGFS [NPLOC4] |

Molecular target: T2, Bfl-1, Q16548
Assay: as above

| Kd | Binder |
| --- | --- |
| > 4100 nM | VDSIRPKCQELRHLCDQFSAEIARRR [MCF2L] |
| 1130 nM | TVATRRLSGFLRTLADRLEGTKELLS [MINA] |
| > 10000 nM | LCQLSCVSKLMRDVCGSLLQSRGMVI [FBXO30] |
| > 3370 nM | QRKHEGFERDLAALGDKVNSLGETAE [SPTAN1] |
| > 3370 nM | FSKREKLVEILRNIGDERTMVFVETK [DDX4] |
| > 2280 nM | TRRSMVFARHLREVGDEFRSRHLNST [POFUT2] |
| > 4000 nM | RVCPYYLSRNLKQQADIIFMPYNYLL [RTEL1] |
| > 10000 nM | TRELQELARKLQELADASENLLTENT [TXNDC11] |
| > 4660 nM | ATKRETAATFLKKVAKEFGFQNNGFS [NPLOC4] |

Molecular target: T3, Mcl-1, Q07820
Assay: as above

| Kd | Binder |
| --- | --- |
| > 4000 nM | VDSIRPKCQELRHLCDQFSAEIARRR [MCF2L] |
| > 10000 nM | TVATRRLSGFLRTLADRLEGTKELLS [MINA] |
| > 10000 nM | LCQLSCVSKLMRDVCGSLLQSRGMVI [FBXO30] |
| 3850 nM | QRKHEGFERDLAALGDKVNSLGETAE [SPTAN1] |
| 142 nM | FSKREKLVEILRNIGDERTMVFVETK [DDX4] |
| > 10000 nM | TRRSMVFARHLREVGDEFRSRHLNST [POFUT2] |
| > 4000 nM | RVCPYYLSRNLKQQADIIFMPYNYLL [RTEL1] |
| 2380 nM | TRELQELARKLQELADASENLLTENT [TXNDC11] |
| > 4000 nM | ATKRETAATFLKKVAKEFGFQNNGFS [NPLOC4] |
